Test results as given in patent US20230174642A1, “AFFINITY-MATURATED ANTI-ASIC1a ANTIBODIES” (SHANGHAITECH UNIVERSITY, priority 2019, published 2023).

T1: hASIC1a on CHO-K1 cells stably expressing hASIC1a (human, UniProt P78348 1-528)
T1 sequence (looked up): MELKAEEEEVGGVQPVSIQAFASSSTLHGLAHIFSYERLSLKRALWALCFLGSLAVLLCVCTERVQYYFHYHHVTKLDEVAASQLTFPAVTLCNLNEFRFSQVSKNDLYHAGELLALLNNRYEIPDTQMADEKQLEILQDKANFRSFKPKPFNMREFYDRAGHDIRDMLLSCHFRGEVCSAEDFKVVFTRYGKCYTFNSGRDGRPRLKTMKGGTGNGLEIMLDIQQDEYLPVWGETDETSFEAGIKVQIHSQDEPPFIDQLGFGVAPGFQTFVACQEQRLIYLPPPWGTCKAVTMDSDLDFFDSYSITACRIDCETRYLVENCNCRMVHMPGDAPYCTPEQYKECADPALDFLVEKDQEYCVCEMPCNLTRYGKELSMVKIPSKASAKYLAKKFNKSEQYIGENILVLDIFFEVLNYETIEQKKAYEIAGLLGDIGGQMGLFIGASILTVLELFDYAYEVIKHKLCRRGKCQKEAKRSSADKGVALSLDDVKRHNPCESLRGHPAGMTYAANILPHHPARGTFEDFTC


Target: T1, hASIC1a on CHO-K1 cells stably …
Assay: cell-based or functional assay

Binder | IC50 for the inhibition of ASIC1a currents, FMP assay [nM]
ASC06-01-IgG1 (antibody, V domains shown, Full length IgG1) VH: QVQLQQSGGGLVQPGGSLRLSCAASGFTFSSYAMSWVRQAPGKGLEWVSAISGSGGSTYYADSVKGRFTISRDNSKNTLYLQMNSLRAEDTAVYYCAKDSYFGYSKGDWGQGTLVTVSS VL: QSALTQPASVSGSPGQSITISCTGTSSDVGAYNYVSWYQQQPGKAPKLMIYGVSNRPSGVSNRFSGSKSGNAASLTISGLQAEDEADYYCSSYTSSSTYVFGTGTKLTVLG | 74
ASC06-02-IgG1 (antibody, V domains shown, Full length IgG1) VH: QVQLQQSGGGLVQPGGSLRLSCAASGFTFSSYAMSWVRQAPGKGLEWVSAISGSGGSTYYADSVKGRFTISRDNSKNTLYLQMNSLRAEDTAVYYCAKDSFFGRAKGSWGQGTLVTVSS VL: QSALTQPASVSGSPGQSITISCTGTSSDVGAYNYVSWYQQQPGKAPKLMIYGVSNRPSGVSNRFSGSKSGNAASLTISGLQAEDEADYYCSSYTSSSTYVFGTGTKLTVLG | 30.5
ASC06-04-IgG1 (antibody, V domains shown, Full length IgG1) VH: QVQLQQSGGGLVQPGGSLRLSCAASGFTFSSYAMSWVRQAPGKGLEWVSAISGSGGSTYYADSVKGRFTISRDNSKNTLYLQMNSLRAEDTAVYYCAKDSFYGRAKGVWGQGTLVTVSS VL: QSALTQPASVSGSPGQSITISCTGTSSDVGAYNYVSWYQQQPGKAPKLMIYGVSNRPSGVSNRFSGSKSGNAASLTISGLQAEDEADYYCSSYTSSSTYVFGTGTKLTVLG | 51.8
ASC06-IgG1 (antibody, V domains shown, Tested as full length IgG1; also called WT antibody ASC06-IgG1; parental ASC06-IgG1 antibody) VH: QVQLQQSGGGLVQPGGSLRLSCAASGFTFSSYAMSWVRQAPGKGLEWVSAISGSGGSTYYADSVKGRFTISRDNSKNTLYLQMNSLRAEDTAVYYCAKDSFYGYSKGDWGQGTLVTVSS VL: QSALTQPASVSGSPGQSITISCTGTSSDVGAYNYVSWYQQQPGKAPKLMIYGVSNRPSGVSNRFSGSKSGNAASLTISGLQAEDEADYYCSSYTSSSTYVFGTGTKLTVLG | 251
